Results: paper PMC11024197 (2024)

Target: T1, PEX14 NTD (1-104) (human, UniProt O75381 1-104)
T1 chain: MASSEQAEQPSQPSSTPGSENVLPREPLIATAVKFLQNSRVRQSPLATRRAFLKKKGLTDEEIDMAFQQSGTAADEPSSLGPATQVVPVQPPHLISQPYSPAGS
Assay: ITC

Binder | Kd [nM]
AQAEQWAAEFIQQQG [PEX5 W5 peptide] | 21
ALSENWAQEFLAAGD [PEX5 W1 peptide] | 72
